Results reported in US10676765B2, “Methods for producing 3-hydroxy-3-methylbutyric acid” (Global Bioenergies, priority 2015, dated 2020).

Key:
Format in all cases: biochemical
[1] = Formation of 3-hydroxyisovaleryl phosphate from 3-hydroxyisovaleryl-CoA and phosphate (MS); details: 10 mM 3-hydroxyisovaleryl-CoA, mass spectrometry
Method: The studied enzymatic reaction was carried out under the following conditions:
10 mM 3-hydroxyisovaleryl-CoA (3-hydroxy-3-methylbutyryl-CoA)
The purified phosphate butyryltransferase from B. subtilis was resuspended in 5 mM potassium phosphate pH 7.5.
A control assay without enzyme was performed in parallel.
The enzymatic assay was initiated by the addition of 20 μl of enzyme preparation into 20 μl of reaction mixture. The formation of 3-hydroxyisovaleryl phosphate (3-hydroxy-3-methylbutyryl phosphate) was analyzed by Mass Spectrometry (MS). 5 μl of the assay was introduced into the mass spectrometer via a loop injection.
Flow injection analyses were performed using a Dionex Ultimate chromatographic system (Thermo Fisher Scientific) at a flow rate of 100 μL/min with a mobile phase composed of H2O containing 10 mM ammonium formate pH 9.45 and acetonitrile 75:25 v/v. Detection was performed with a Q-exactive spectrometer (Thermo Fisher Scientific) fitted with an electrospray ionization source (negative ionization mode at a resolution of 70000 m/Δm, FWHM at m/z 200). Non-resonant induced dissociation experiments—Higher-energy C-trap dissociation (HCD)—were acquired at normalized collision energy of 10%. Raw data were manually inspected using the Qualbrowser module of Xcalibur version 3.0 (Thermo Fisher Scientific). […]

[2] = Conversion of 3-hydroxyisovaleryl-CoA and ADP into 3-hydroxyisovaleric acid and ATP, phosphate butyryltransferase from Bacillus subtilis with butyrate kinases; details: 4 mM 3-hydroxyisovaleryl-CoA, 4 mM ADP, 0.2 mg/ml each enzyme, 20 min, 30° C.
Method: (§1) The enzymatic assays were conducted in a total reaction volume of 0.2 ml.
(§2) The standard reaction mixture contained:
(§3) 50 mM potassium phosphate buffer pH 7.5
4 mM 3-hydroxyisovaleryl-CoA
(§4) 0.2 mg/ml of purified phosphate butyryltransferase from Bacillus subtilis
(§5) 0.2 mg/ml of purified butyrate kinase from Lactobacillus casei or Geobacillus sp.
A series of controls were performed in parallel (Assays C-H; Table 4).
The assays were then incubated for 20 min with shaking at 30° C.
(§6) After an incubation period, the reactions were stopped by heating the reaction medium 4 min at 90° C. The samples were centrifuged, filtered through a 0.22 μm filter and the clarified supernatants were transferred into a clean vial for further analysis. The consumption of ADP and 3-hydroxyisovaleryl-CoA, and the formation of ATP, 3-hydroxyisovaleric acid and free coenzyme A (CoA-SH) were followed by using HPLC-based methods.
HPLC analysis was performed using 1260 Infinity LC System (Agilent), equipped with column heating module and RI detector. 2 μl of samples were separated on Polaris C18-A column (150×4.6 mm, 5 μm particle size, column temp. 30° C.) with a mobile phase flow rate of 1.5 ml/min. The separation was performed using 8.4 mM sulfuric acid in H2O/MeOH mixed solution (99/1) (V/V). In these conditions, the retention time of ADP, ATP and 3-hydroxyisovaleric acid were 2.09 min, 2.26 min and 5.01 min, respectively. […]

[3] = Conversion of 3-methylcrotonyl-CoA and ADP into 3-methylcrotonic acid and ATP, phosphate butyryltransferase from Bacillus subtilis with butyrate kinases; details: 4 mM 3-methylcrotonyl-CoA, 4 mM ADP, 0.2 mg/ml each enzyme, 20 min, 30° C.
Method: as §1, §2, §3
4 mM 3-methylcrotonyl-CoA
as §4, §5
Assays were then incubated for 20 min with shaking at 30° C.
as §6, with “3-methylcrotonyl-CoA,” for “3-hydroxyisovaleryl-CoA,”, “3-methylcrotonic” for “3-hydroxyisovaleric”
HPLC analysis was performed using the 1260 Infinity LC System (Agilent) equipped with a column heating module and an RI detector. 2 μl of samples were separated on a Polaris C18-A column (150×4.6 mm, 5 μm particle size, column temp. 30° C.) with a mobile phase flow rate of 1.5 ml/min. The consumption of ADP and the formation of ATP were followed by HPLC analysis according to the methods described in Example 10.
HPLC analysis was performed using the 1260 Infinity LC System (Agilent) equipped with a column heating module and a UV detector (260 nm). […]

[4] = Enzyme-catalyzed hydrolysis of 3-hydroxyisovaleryl-CoA into 3-hydroxyisovaleric acid; details: 10 mM 3-hydroxyisovaleryl-CoA, 1 mg/ml thioesterase, 30 min, 30° C.
Method: The gene coding for acyl-CoA thioesterase II from Pseudomonas putida was synthesized and the corresponding enzymes were further produced according to the procedure described in Example 1.
Provided vectors contained a stretch of 6 histidine codons after the methionine initiation codon. The corresponding enzymes were further produced according to the procedure described in Example 1.
(§7) The enzymatic assays were conducted in total reaction volume of 0.2 ml
as §2
10 mM 3-hydroxyisovaleryl-CoA
1 mg/ml of purified thioesterase
The assays were incubated for 30 min with shaking at 30° C. and the reactions were stopped by the addition of 0.1 ml of acetonitrile. The amount of 3-hydroxyisovaleryl-CoA was quantified according to HPLC-based procedure described in Example 3.
In these conditions, the 3-hydroxyisovaleryl-CoA retention time was 4.40 min and coenzyme A (CoA) retention time was 3.96 min.
Additionally, 3-hydroxyisovaleric acid production was analyzed according to the procedure described en Example 6.

[5] = Enzyme-catalyzed hydrolysis of 3-methylcrotonyl-CoA into 3-methylcrotonic acid and free coenzyme A; details: 10 mM 3-methylcrotonyl-CoA, 1 mg/ml thioesterase, 30 min, 30° C.
Description: The gene coding for acyl-CoA thioesterase II from Pseudomonas putida was synthesized according to the procedure as described in Example 1.
The vector pCA24N which contained the gene encoding acyl-CoA thioesterase 2 (TesB) from Escherichia coli was purchased from NAIST (Nara Institute of Science and Technology, Japan, ASKA collection). This vector provided contained a stretch of 6 histidine codons after the methionine initiation codon.
The corresponding enzymes were produced according to the procedure described in Example 1.
as §1, §2
10 mM 3-methylcrotonyl-CoA (Sigma-Aldrich)
1 mg/ml of purified recombinant thioesterase.
Control assays were performed in which either no enzyme was added or no substrate was added.
The assays were incubated for 30 min with shaking at 30° C., the reactions were stopped by the addition of 0.1 ml of acetonitrile and the samples were then analyzed by HPLC-based procedure.
HPLC analysis was performed using an 1260 Infinity LC System (Agilent), equipped with a column heating module and a UV detector (210 nm). […] The separation was performed using mixed A (H2O containing 8.4 mM sulfuric acid) and B (acetonitrile) solutions in a linear gradient (0% B at initial time 0 min→70% B at 8 min). […]

[6] = Kinetic studies of the hydration reaction of 3-methylcrotonyl-CoA; details: 0-4 mM 3-methylcrotonyl-CoA, 0.01 mg/ml enzyme, 30° C., pH 7.0
Method: as §7, §2
0-4 mM 3-methylcrotonyl-CoA
0.01 mg/ml 3-hydroxypropionyl-CoA dehydratase from Metallosphaera sedula.
Assays were incubated for 0, 2, 4, 8, 16 min with shaking at 30° C. and the reactions were stopped by the addition of 100 μl of acetonitrile. The amount of 3-hydroxyisovaleryl-CoA was quantified according to HPLC-based procedure described in Example 3.
The graph depicting 3-hydroxyisovaleryl-CoA formation as a function of time at different substrate concentrations is shown in the FIG. 15.

B1: phosphate butyryltransferase from Bacillus subtilis: phosphate butyryltransferase (EC 2.3.1.19) from Bacillus subtilis (strain 168), Uniprot P54530 (protein, listed as Bacillus subtilis)
chain: MKLKDLIGKASIHKNKTIAVAHAEDEEVIRAVKLAAEHLSARFLLTGDSKKLNELTSSMQGHQVEIVHANTPEESAKLAVRAVHHKTADVLMKGNVPTSVLLKAVLNRQEGLRSASVLSHVAVFDIPDFDRLMFVTDSAMNIAPSLEELRQILQNAVHVAHAVGNNMPKAAALAAVETVNPKMEATVNAAALAQMYKRGQIKGCIVDGPLALDNAVSQIAAAQKKISGDVAGNADILLVPTIEAGNILYKSLIYFAKASVAAVITGAKAPIALTSRADSAENKLYSIALAICASEEYTH
modifications: strain 168
notes: phosphate butyryltransferase (EC 2.3.1.19) from Bacillus subtilis (strain 168), Uniprot P54530
[1]
  generation of 3-hydroxyisovaleryl phosphate: generation of 3-hydroxyisovaleryl phosphate in the enzyme catalyzed assay was proved by MS technique
[2]
  production of 3-hydroxyisovaleric acid and ATP: significant production of 3-hydroxyisovaleric acid, without simultaneous generation of ATP
[3]
  production of 3-methylcrotonic acid and ATP: significant production of 3-methylcrotonic acid without a simultaneous generation of ATP

B2: tesB Escherichia coli: acyl-CoA thioesterase 2 from E. coli, Uniprot P0AGG2 (protein, listed as Escherichia coli)
chain: MSQALKNLLTLLNLEKIEEGLFRGQSEDLGLRQVFGGQVVGQALYAAKETVPEERLVHSFHSYFLRPGDSKKPIIYDVETLRDGNSFSARRVAAIQNGKPIFYMTASFQAPEAGFEHQKTMPSAPAPDGLPSETQIAQSLAHLLPPVLKDKFICDRPLEVRPVEFHNPLKGHVAEPHRQVWIRANGSVPDDLRVHQYLLGYASDLNFLPVALQPHGIGFLEPGIQIATIDHSMWFHRPFNLNEWLLYSVESTSASSARGFVRGEFYTQDGVLVASTVQEGVMRNHN
modifications: strain K12
notes: acyl-CoA thioesterase 2 from E. coli, Uniprot P0AGG2
[4]
  Conversion, %: 52%
[5]
  3-methylcrotonic acid produced: 0.6 mM

B3: tesB Pseudomonas putida: acyl-CoA thioesterase II from Pseudomonas putida, Uniprot Q88DR1 (protein, listed as Pseudomonas putida)
chain: MSHVLDDLVDLLSLESIEENLFRGRSQDLGFRQLYGGQVLGQSLSAASQTVEDARHVHSLHGYFLRPGDASLPVVYSVDRVRDGGSFSTRRVTAIQKGQTIFTCSASFQYDEEGFEHQAQMPDVVGPENLPTEVELAHAMADQLPERIRDKVLCAKPIEIRPVTERDPFNPKPGDPVKYAWFRADGNLPDVPALHKYMLAYASDFGLLTTALLPHGKSVWQRDMQIASLDHSLWFHGNLRADQWLLYATDSPWAGNSRGFCRGSIFNQAGQLVASSSQEGLIRHRKDWA
[4]
  Conversion, %: 58%
[5]
  3-methylcrotonic acid produced: 3.1 mM

B4: 3-Hydroxypropionyl-CoA dehydratase from Metallosphaera sedula: recombinant His-tagged 3-hydroxypropionyl-CoA dehydratase (EC 4.2.1.116) from Metallosphaera sedula, Uniprot A4YI89 (protein, listed as Metallosphaera sedula)
chain: MEFETIETKKEGNLFWITLNRPDKLNALNAKLLEELDRAVSQAESDPEIRVIIITGKGKAFCAGADITQFNQLTPAEAWKFSKKGREIMDKIEALSKPTIAMINGYALGGGLELALACDIRIAAEEAQLGLPEINLGIYPGYGGTQRLTRVIGKGRALEMMMTGDRIPGKDAEKYGLVNRVVPLANLEQETRKLAEKIAKKSPISLALIKEVVNRGLDSPLLSGLALESVGWGVVFSTEDKKEGVSAFLEKREPTFKGK
modifications: His tag; strain ATCC 51363 /DSM 5348
notes: recombinant His-tagged 3-hydroxypropionyl-CoA dehydratase (EC 4.2.1.116) from Metallosphaera sedula, Uniprot A4YI89
[6]
  Km: 300 µM
  kcat for 3-methylcrotonyl-CoA: 10 s⁻¹
